Data reported in article PMC3764444, “Involvement of A20 in the molecular switch that activates the non-canonical NF-кB pathway” (Scientific Reports, 2013).

Target: T1, recombinant cIAP1 protein (human, UniProt Q13490 1-618)
T1 construct: the whole cIAP1, human cDNA; cloned in pGEX-6P-1; also called released from GST-cIAP1 (GST-cIAP); source: E. coli DH5α, purified (Glutathione Sepharose 4B), released from the beads with 3C protease (Turbo3C)
Test: pull-down; GST pull-down: 2 μg polyubiquitin chains or 0.5 μg cIAP1 with 0.5 μg GST or GST-ZnF5-7 proteins and Glutathione Sepharose 4B in TNE buffer (20 mM Tris-HCl pH 7.5, 130 mM NaCl, 1% Triton X-100, 1 mM EDTA) with 0.5 mM DTT and 0.1 mg/ml BSA, 3 hr; immunoblot
Conditions: both partners purified

T1 sequence (Q13490 whole entry): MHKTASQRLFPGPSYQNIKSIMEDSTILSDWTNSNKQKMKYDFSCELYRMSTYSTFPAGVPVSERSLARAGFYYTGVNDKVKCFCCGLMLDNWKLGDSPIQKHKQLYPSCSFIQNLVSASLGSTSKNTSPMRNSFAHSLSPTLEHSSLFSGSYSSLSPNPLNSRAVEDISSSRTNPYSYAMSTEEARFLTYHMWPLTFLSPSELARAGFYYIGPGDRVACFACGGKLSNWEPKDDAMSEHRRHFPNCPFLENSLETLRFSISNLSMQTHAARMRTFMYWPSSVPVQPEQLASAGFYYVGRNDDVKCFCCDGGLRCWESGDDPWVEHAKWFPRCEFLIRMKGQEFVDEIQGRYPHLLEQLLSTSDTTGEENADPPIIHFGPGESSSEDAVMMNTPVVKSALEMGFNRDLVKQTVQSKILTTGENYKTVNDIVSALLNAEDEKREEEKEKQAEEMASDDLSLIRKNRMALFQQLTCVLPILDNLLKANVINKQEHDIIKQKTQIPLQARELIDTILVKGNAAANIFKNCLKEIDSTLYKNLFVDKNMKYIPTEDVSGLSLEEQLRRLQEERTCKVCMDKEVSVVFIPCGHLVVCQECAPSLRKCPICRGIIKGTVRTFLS

binding result: binds
B1: GST-A20-ZnF5-7 (domain or fragment, human, UniProt P21580 647-790, looked up)
chain: TASRFQNTIPCLGRECGTLGSTMFEGYCQKCFIEAQNQRFHEAKRTEEQLRSSQRRDVPRTTQSTSRPKCARASCKNILACRSEELCMECQHPNQRMGPGAHRGEPAPEDPPKQRCRAPACDHFGNAKCNGYCNECFQFKQMYG
notes: A20, human, fragment aa 647-790 encompassing ZnF5 to ZnF7; cloned in pGEX-6P-1; also called GST-ZnF5-7; source: E. coli DH5α, purified (Glutathione Sepharose 4B), dialyzed with PBS
